Values belong to the binder of their own block, whether it stands above or below them.
Experiments:
[1] = molecular target: T1, human G-protein-coupled receptor family C group 5 member D (GPRC5D) (human, UniProt Q9NZD1 1-345); test: FACS, CHO-K1/human GPRC5D, chimeric antibody
T1 construct: whole, on cells; also called human GPRC5D protein
Procedure: CHO—K1 cells stably expressed human GPRC5D, were harvested from flasks. 100 µl of 1×10⁶ cells/ml of cells were incubated with primary chimeric antibodies in 3-fold serial dilutions starting from 300 nM to 0.001 nM for 30 minutes on ice. After being washed with 200 µl of FACS buffer twice, cells were incubated with secondary antibody for 30 minutes on ice. Cells were washed with 200 µl of FACS buffer twice and transferred to BD Falcon 5 ml tube and analyzed by FACS.

[2] = molecular target: T1, human G-protein-coupled receptor family …; test: FACS, CHO-K1/GPRC5D
[3] = molecular target: T1, human G-protein-coupled receptor family …; test: FACS, CHO-K1/human GPRC5D
[4] = molecular target: T1, human G-protein-coupled receptor family …; test: FACS, NCI-H929 cells
[5] = molecular target: T1, human G-protein-coupled receptor family …; test: FACS, CHO-K1/GPRC5D; remark: listed apart in the source

T1 sequence (Q9NZD1 whole entry): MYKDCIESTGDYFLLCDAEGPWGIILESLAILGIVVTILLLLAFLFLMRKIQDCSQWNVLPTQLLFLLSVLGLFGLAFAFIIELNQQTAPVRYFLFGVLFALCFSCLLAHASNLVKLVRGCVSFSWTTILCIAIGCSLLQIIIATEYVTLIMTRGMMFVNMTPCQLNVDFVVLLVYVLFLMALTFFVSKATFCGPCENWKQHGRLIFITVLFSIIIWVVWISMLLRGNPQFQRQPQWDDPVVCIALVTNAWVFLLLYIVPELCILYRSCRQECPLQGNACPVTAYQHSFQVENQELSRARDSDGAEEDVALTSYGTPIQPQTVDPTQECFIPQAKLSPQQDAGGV

Bottom [1]: 3020 | LogEC50 [1]: 0.245 | Span [1]: 384000 | Top [1]: 387000
B1: 38A10E9A11 (chimeric) (antibody, V domains shown)
VH: QVQLQQSGAELARPGASVKMSCKASGYTFTTYTMHWVKQRPGQGLEWIGYINPSSGYTNYNQKFKDKATLTAGKSSSTAYMQLSSLTSEDSAVYYCASLRSRGYFDYWGRGTTLTVSS
VL: DIVMTQSQKFLSTSVGDRVSITCKASQNVGTAVAWYQQKPGQSPKLLIYSASNRYTGVPDRFTGSGSGTDFTLTISNMQSEDLAGYFCQQYSSYPYTFGGGTKLEIK
notes: also called 38A9E10A11

Bottom [2]: 10900 | LogEC50 [2]: 0.591 | Span [2]: 186000 | Top [2]: 197000 | Bottom [3]: 171 | LogEC50 [3]: 0.781 | Span [3]: 119000 | Top [3]: 119000 | Bottom [4]: 199 | LogEC50 [4]: 0.805 | Span [4]: 17700 | Top [4]: 17900
B2: 34-H1L1 (antibody, V domains shown)
VH: EVQLVESGGGLVKPGGSLRLSCAASGFTFSSYGMSWVRQAPGKGLEWVSTISSGGSYTYYPDSVKGRFTISRDNAKNSLYLQMNSLRAEDTAVYYCARQGGDAMDYWGQGTLVTVSS
VL: DIQMTQSPSSLSASVGDRVTITCRASQSINNNLHWYQQKPGKAPKLLIYYASQSISGVPSRFSGSGSGTDFTLTISSLQPEDFATYYCQQSNSRLTFGGGTKVEIK
notes: humanized 34D3H1, VH v1 x VL v1

Bottom [3]: 523 | LogEC50 [3]: 0.511 | Span [3]: 102000 | Top [3]: 102000 | Bottom [5]: 9600 | LogEC50 [5]: 0.357 | Span [5]: 169000 | Top [5]: 178000 | Bottom [4]: 342 | LogEC50 [4]: -0.199 | Span [4]: 13200 | Top [4]: 13500
B3: 37-H1L1 (antibody, V domains shown)
VH: EVQLVESGGGLVQPGGSLRLSCAASGFTFSDYWMNWVRQAPGKGLEWVAEIRLKSNNYATHYAESVKGRFTISRDNAKNSLYLQMNSLRAEDTAVYYCARPLLWFRRYYAMDYWGQGTLVTVSS
VL: DIQMTQSPSSLSASVGDRVTITCSASQGISNYLNWYQQKPGKAPKLLIYYTSSLHSGVPSRFSGSGSGTDFTLTISSLQPEDFATYYCQQYSKLPFTFGQGTKLEIK
notes: humanized 37B9C4, VH v1 x VL v1; also called 37B9C4 (H1L1)

Bottom [1]: 5770 | LogEC50 [1]: 0.229 | Span [1]: 398000 | Top [1]: 404000
B4: 21C3C11B3 (chimeric) (antibody, V domains shown)
VH: QVQLQQSGAELVRPGTSVKVSCKASGYAFINYLIEWIKQRPGQGLEWIGMINPGSGGTNYNEKFKDKATLTADKSSSTAYMQLSSLTSDDSAVYFCARNWDVWGQGTTLTVSS
VL: DVVMTQSPLSLPVSLGDQASVSCRSSQSLVHSTGNTYLHWYLQKPGQSPKLLIYKVSNRFSGVPDRFSGSGSGTDFTLKISRVEAEDLGVYFCSQSTHVPWTFGGGTKLEIK

Bottom [1]: 1490 | LogEC50 [1]: 0.344 | Span [1]: 439000 | Top [1]: 440000
B5: 40A5B2 (chimeric) (antibody, V domains shown)
VH: EVQLQQSGPELVKPGASVKMSCKASGYTFTRNIMHWVKQKPGQGLEWIGYINPYNAGSKYNEKFKGKATLTSDISSSTAYMELSSLTSEDSAVYYCAREEVYYRYGAWFAYWGHGTLVTVSA
VL: DIVLTQSPASLAVSLGQRATISCRASQSVSTSSYSYMHWYQQKPGQPPKLLIKYASNLESGVPARFSGSGSGTDFTLNIHPVEEEDTATYYCQHSWEIPRTFGGGTKLEIK

Bottom [1]: 4330 | LogEC50 [1]: 0.342 | Span [1]: 426000 | Top [1]: 430000
B6: 29B2C10 (chimeric) (antibody, V domains shown)
VH: EVQLQQSGPELVKPGASMKLSCKASGYSFTGYTMHWVKQSHGENLEWIGLINPYNGGTNYNQKFKGKATLTVDKSSSTAYMELLSLTSEDSAVYYCSRWGLRRAMDYWGQGTSVTVSS
VL: DIVMTQSQKFMSTSVGDRVSVTCKASQNVGSNVAWYQQKPGQSPKALIYSASYRYSGVPDRFTGNGSGTDFTLTISNVQSEDLAEYFCQQYYNSPWTFGGGTKLEIK

— patent US12281162 (LANOVA MEDICINES DEVELOPMENT, dated 2025)
